# Reference: patent US11360100B2, “Methods and compositions useful in detecting proteins” (OREGON HEALTH & SCIENCE UNIVERSITY, priority 2016, dated 2022)
# “Also recorded” adds a separate entry of the source. rhodamine = not defined here; BODIPY = not defined here
# Assays:
# CoilZ-EGFP [1] = assay: SDS-PAGE/PVDF membrane labeling of transfected HEK293FT lysates, CoilZ-EGFP; format: binding; details: cell lysates, SDS-PAGE, PVDF membrane
# Procedure: The CoilY and CoilZ pair could be used to label two protein targets simultaneously. Transfected HEK293FT cell lysates from cells expressing mCherry, CoilY-mCherry, EGFP, or CoilZ-EGFP were resolved by SDS-PAGE and transferred to a PVDF membrane. The membrane was incubated sequentially with CoilZ-fluorescein and CoilY-rhodamine before imaging. GFP and mCherry fluorescence was not preserved due to SDS-PAGE protein denaturation.
# (§1) A protein gel-based assay was optimized for analyzing VIP tags in vitro. Cell lysates were made from cells transfected with mCherry, CoilY-mCherry, GFP, or CoilZ-GFP, resolved by SDS-PAGE, and transferred to a membrane. GFP and mCherry fluorescence were not preserved in this experiment. The membrane was then contacted with CoilZ-fluorescein and CoilY-rhodamine before imaging. […] The probe peptides were specific for each tagged protein, and this single pair enabled specific and selective protein tagging of two distinct targets. In addition both the VIP E/R and VIP Y/Z tag sets could be used concurrently to label two recombinant proteins (DHFR and mCherry) without crosstalk (FIG. 23).
# [2] = test system: untagged mCherry and DHFR; assay: SDS-PAGE/PVDF membrane labeling, untagged proteins; format: binding; details: lysates and purified proteins, PVDF membrane
# Procedure: Crude lysates (lys.) and purified proteins (serial dilutions) were resolved by SDS-PAGE. Lysates were prepared from HERK 293FT cells transfected with mCherry, CoilY-mCherry, DHFR, and CoilE-DHFR. The protein gel was transferred to a PVDF membrane and then incubated with CoilZ-Fluorescein and CoilR-rhodamine. After washing, the membrane was imaged to detect VIPER labeling of DHFR (red) and VIP Y/Z labeling of mCherry (green). Untagged proteins were not labeled by either CoilR-rhodamine or CoilZ-fluorescein.
# as §1
# [3] = target: coiled-coil heterodimer pairs; details: heterodimer pair, Table 2; cited from earlier work
# TfR1-MiniE = assay: miniVIPER versus VIPER labeling of TfR1 in CHO TRVb cells; format: cell-based; details: Tf-AF488 and full length CoilR-Cy5
# Procedure: FIG. 24 A and B are fluorescent micrographs comparing VIP E/R labeling with miniVIPER (MiniE and MiniR) labeling of TfR1. […] After labeling cells were imaged over time during a 30 min incubation at 37° C. Cells were imaged as confocal slices at 63× magnification. Transferrin-AF488 was false-colored green, CoilR-Cy5 was false-colored magenta, and nuclei were stained with Hoechst and false-colored blue. Individual channels are shown in FIG. 24B (blue, green, magenta) for the 5 minute timepoint. A Pearson's correlation analysis was used to compare fluorescence co-localization of CoilR-Cy5 with Transferrin-AF488. The p values are reported on the image and indicate that TfR1-miniE had better co-localization between Tf and CoilR labeling.
# VIP E/R was edited by removing a heptad repeat, and changing key residues in the sequence to maximize affinity, improve dimer interface and create a smaller tag pair with more favorable charge balance for imaging in cells. MiniE (SEQ ID NO:10) and MiniR (SEQ ID NO:9) were created. TfR1 was tagged at the C-terminus with MiniE.
# untagged EGFP-TM = assay: Flow cytometry of probe labeling, live U-2 OS cells expressing untagged EGFP-TM; format: cell-based, human; details: 500 nM probe
# Procedure: The in vitro results were translated to living cells. Flow cytometry was used to evaluate protein labeling in live human osteosarcoma (U-2 OS) cells expressing CoilZ-EGFP-TM, CoilY-EGFP-TM, or untagged EGFP-TM (FIG. 11). Cells were treated with 500 nM AF647-conjugated probe peptide before analysis, and we gated for EGFP-expressing cells. […] Non-specific labeling of untagged EGFP-TM and homodimerization with CoilY-EGFP-TM were minimal for cells exposed to CoilY-AF647. Cells expressing CoilY-EGFP-TM were labeled with CoilZ-AF647, but with only a 4-fold enhancement.
# Protein labeling was assessed as a function of CoilY-AF647 concentration (FIG. 25). Live cells expressing CoilZ-EGFP-TM or untagged EGFP-TM were treated with a range of CoilY-AF647 concentrations (50 nM to 1000 nM for 30 min at room temperature). […] Cells had 21- to 44-fold higher median fluorescence compared to cells expressing untagged protein. Treatment with 300 nM AF647-CoilY gave optimal labeling, with 98% of cells labeled and a 35-fold increase in AF647 fluorescence. Treatment with an excess of probe peptide (i.e., 1000 nM) enhanced the AF647 signal, but at the cost of a small increase in non-specific labeling.
# [4] = test system: untagged GFP/EGFP and mCherry; assay: Fluorescence microscopy, cells expressing untagged fluorescent proteins; format: cell-based, human
# Procedure: (§2) Fluorescence microscopy was used to confirm that the VIP Y/Z tag set enabled selective fluorescent labeling of proteins (FIGS. 3A and 3B). CoilZ was expressed by fusion to a cell-surface localized variant of GFP (CoilZ-GFP; pDisplay vector). […] Labeling was rapid (<30 min), target-specific, and live-cell compatible. Homodimerization between a CoilZ probe peptide and CoilZ-GFP was not observed. Cells expressing untagged GFP were not labeled with the CoilY probe peptide. CoilY was also expressed fused to the cell surface localized GFP and visualized using a CoilZ-AF647 probe peptide (FIG. 3B). No homodimerization of CoilY was observed, and the labeling was specific.
# (§3) It was next confirmed that the VIP Y/Z tag set could be used in two-target imaging in fixed cells (FIGS. 5B and 13). A combination of cell lines singly-transfected with mCherry, GFP, CoilY-mCherry, or CoilZ-GFP was used, as illustrated in FIG. 9. […] Then we labeled two tagged FPs in one sample using a mixed population of cells expressing either CoilY-mCherry or CoilZ-GFP.
# (§4) The disclosed methods were tested in transfected human osteosarcoma cells (U-2 OS). A pDisplay vector was used to target CoilZ-EGFP and untagged EGFP to the cell surface. This construct includes a C-terminal fusion to the transmembrane domain of the platelet derived growth factor receptor. As expected, both CoilZ-EGFP and untagged EGFP localized to the cell surface, and green fluorescence was observed within 24 h of transfection. Then the cells were blocked with 6% BSA and 10% FBS for 30 minutes at 37° C. and then contacted with an AF647-conjugated CoilY probe (CoilY-AF647), 30 min at 4° C. Cells were fixed before imaging by confocal fluorescence microscopy. The probe peptides are membrane impermeant; only cell-surface EGFP was accessible to CoilY-AF647 for labeling. Colocalization of green fluorescent CoilZ-EGFP with CoilY-AF647 was observed.
# The CoilY/CoilZ tag set is bidirectional—either CoilZ or CoilY can serve as the probe peptide. CoilY-EGFP was expressed on the surface of U2OS cells and labeled with CoilZ-AF647. […]
# CoilY-EGFP = assay: Fluorescence microscopy labeling of cell-surface CoilY-GFP (CoilY-EGFP); format: cell-based, human
# Procedure: as §2
# The CoilY/CoilZ tag set is bidirectional—either CoilZ or CoilY can serve as the probe peptide. CoilY-EGFP was expressed on the surface of U2OS cells and labeled with CoilZ-AF647. Protein labeling was rapid (<30 min) and specific; non-specific labeling of untagged EGFP was not observed. Homodimerization was not observed for either CoilZ-AF647 with CoilZ-EGFP or CoilY-AF647 with CoilY-EGFP (FIG. 3B).
# (§5) The CoilY/CoilZ tag set is also compatible with live-cell imaging. CoilZ-EGFP was contacted with CoilY-AF647 in live U2OS cells. […] Homodimerization was not observed for CoilY-EGFP incubated with CoilY-AF647. Non-specific labeling of untagged GFP was not observed (FIG. 26). Cells internalize labeled targets over time. CoilZ-GFP and CoilY-AF647 co-localization was observed on the surface and in endocytic vesicles due to rapid internalization, and AF647 signal accumulated inside cells during a 40 min. long incubation at room temperature (FIG. 12).
# CoilZ-EGFP [5] = assay: Fluorescence microscopy labeling of cell-surface CoilZ-GFP (CoilZ-EGFP); format: cell-based, human; details: fluorescence microscopy
# Procedure: as §2, §3, §4, §5
# The VIPY/Z tag set can be used to label multiple protein targets simultaneously. Cells expressing CoilY-mCherry were combined with those expressing CoilZ-EGFP-pDisplay (FIG. 9). This mixed cell population, as well as unmixed CoilZ-GFP, CoilY-mCherry, and untagged controls, were plated for imaging. […] Fluorescence was detected by confocal fluorescence imaging. […]
# untagged TfR1 = target: T1, untagged TfR1 (Homo sapiens, UniProt P02786); assay: CoilR probe labeling of CHO TRVb cells expressing untagged TfR1; format: cell-based; details: labeled at 4° C.
# T1 construct: expressed in transfected cells; host or cells: CHO TRVb
# T1 sequence (P02786 whole entry): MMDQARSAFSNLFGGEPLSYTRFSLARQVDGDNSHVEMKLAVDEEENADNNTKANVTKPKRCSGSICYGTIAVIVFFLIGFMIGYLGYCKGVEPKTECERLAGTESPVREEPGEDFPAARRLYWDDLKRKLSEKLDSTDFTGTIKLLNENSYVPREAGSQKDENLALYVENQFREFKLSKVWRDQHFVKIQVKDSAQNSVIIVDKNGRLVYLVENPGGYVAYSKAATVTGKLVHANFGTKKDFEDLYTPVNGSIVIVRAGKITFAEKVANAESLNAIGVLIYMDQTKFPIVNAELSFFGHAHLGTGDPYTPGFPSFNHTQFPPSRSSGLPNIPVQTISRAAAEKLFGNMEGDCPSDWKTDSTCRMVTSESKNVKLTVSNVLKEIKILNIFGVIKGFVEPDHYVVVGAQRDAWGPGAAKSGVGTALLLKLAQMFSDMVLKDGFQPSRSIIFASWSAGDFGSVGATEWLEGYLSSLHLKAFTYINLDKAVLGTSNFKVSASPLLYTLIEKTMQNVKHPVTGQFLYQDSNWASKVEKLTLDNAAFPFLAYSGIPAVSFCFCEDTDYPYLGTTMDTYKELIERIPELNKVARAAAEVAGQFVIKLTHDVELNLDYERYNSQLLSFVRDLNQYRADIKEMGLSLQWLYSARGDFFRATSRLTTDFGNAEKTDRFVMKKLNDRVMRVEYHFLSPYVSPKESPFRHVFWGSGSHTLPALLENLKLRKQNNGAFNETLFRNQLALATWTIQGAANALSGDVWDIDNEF
molecule,measurement,setting,value
"CoilY-rhodamine: red fluorescent CoilY probe peptide, maleimide conjugate (conjugate, reading uncertain, red fluorescent CoilY probe peptide, maleimide conjugate) peptide: MGSSNTVKELKNYIQELEERNAELKNLKEHLKFAKAELEFELAAHKFEGGGAAAC(rhodamine)LGKLAAALEHHHHHH",probe peptide binding to CoilZ-EGFP on membrane,CoilZ-EGFP [1],specific coiled-coil heterodimer formation could be detected; also recorded: Probe peptide binding was detected
"CoilR-rhodamine: CoilR probe peptide conjugated to rhodamine (conjugate, reading uncertain) peptide: MGGSLEIRAAFLRQRNTALRTEVAELEQEVQRLENEVSQYETRYGPLGGGAAALGC(rhodamine)LAAALEHHHHHH",labeling of untagged proteins on membrane,[2],not labeled
VIP 1/2: heterodimeric tag pair of Coil1 and Coil2 (peptide) chain 1: NLVAQLENEVASLENENETLKKKNLHKKDLIAYLEKEIANLRKKIEE chain 2: ARNAYLRKKIARLKKDNLQLERDEQNLEKIIANLRDEIARLENEVASHEQ,Kd,[3],< 10 nM
"miniVIPER: shorter, better charge balanced VIP E/R pair of MiniE and MiniR (peptide) chain 1: LEIRVAFLRQRNTALRTEVAELEQEVQRLENRYGPL chain 2: LEIEAAFLERENTALETRVAELRQRVQRLRNEYGPL",Tf-AF488 signal compared to VIPER,TfR1-MiniE,brighter Tf-A488 signal
same,colocalization between Tf-AF488 and CoilR-Cy5 compared to VIPER,TfR1-MiniE,improved colocalization
CoilZ-AF647: CoilZ probe peptide conjugated to AF647 (conjugate) peptide: MGSSQKVAQLKNRVAYKLKENAKLENIVARLENDNANLEKDIANLEKDIANLERDVARGGGAAACLGKLAAALEHHHHHH,non-specific labeling of untagged EGFP-TM,untagged EGFP-TM,slightly higher
same,non-specific labeling of untagged fluorescent proteins,[4],not observed
same,labeling time (rapid),CoilY-EGFP; CoilY-EGFP on surface of U2OS cells,< 30 min
same,labeling of CoilY-GFP/EGFP (specificity),CoilY-EGFP; fluorescence microscopy,specific
same,homodimerization / cross-reactivity of CoilZ probe with CoilZ-GFP/EGFP,CoilZ-EGFP [5],not observed
"CoilZ probe peptide: CoilZ with linker, reactive cysteine and His6 tag, SEQ ID NO: 14 (peptide) MGSSQKVAQLKNRVAYKLKENAKLENIVARLENDNANLEKDIANLEKDIANLERDVARGGGAAACLGKLAAALEHHHHHH",homodimerization / cross-reactivity of CoilZ probe with CoilZ-GFP/EGFP,CoilZ-EGFP [5],not observed
"CoilY probe peptide: CoilY with linker, reactive cysteine and His6 tag, SEQ ID NO: 13 (peptide) MGSSNTVKELKNYIQELEERNAELKNLKEHLKFAKAELEFELAAHKFEGGGAAACLGKLAAALEHHHHHH",non-specific labeling of untagged fluorescent proteins,[4],not labeled
"CoilR-BODIPY: CoilR probe peptide conjugated to BODIPY (conjugate, reading uncertain) peptide: MGGSLEIRAAFLRQRNTALRTEVAELEQEVQRLENEVSQYETRYGPLGGGAAALGC(BODIPY)LAAALEHHHHHH",labeling of cells expressing untagged TfR1,untagged TfR1,showed now labeling
VIP 3/4: heterodimeric tag pair of Coil3 and Coil4 (peptide) chain 1: NEVTTLENDAAFIENENAYLEKEIARLRKEKAALRNRLAHKK chain 2: QKVAELKNRVAVKLNRNEQLKNKVEELKNRNAYLKNELATLENEVARLENDVAE,Kd,[3],< 30 nM
